The source of these data is article PMC3719173 (Nature structural & molecular biology, 2010).

The labels stand for the following.
T1: GST-Rev-erbα LBD (human)
T1 sequence (P20393 whole entry, looked up): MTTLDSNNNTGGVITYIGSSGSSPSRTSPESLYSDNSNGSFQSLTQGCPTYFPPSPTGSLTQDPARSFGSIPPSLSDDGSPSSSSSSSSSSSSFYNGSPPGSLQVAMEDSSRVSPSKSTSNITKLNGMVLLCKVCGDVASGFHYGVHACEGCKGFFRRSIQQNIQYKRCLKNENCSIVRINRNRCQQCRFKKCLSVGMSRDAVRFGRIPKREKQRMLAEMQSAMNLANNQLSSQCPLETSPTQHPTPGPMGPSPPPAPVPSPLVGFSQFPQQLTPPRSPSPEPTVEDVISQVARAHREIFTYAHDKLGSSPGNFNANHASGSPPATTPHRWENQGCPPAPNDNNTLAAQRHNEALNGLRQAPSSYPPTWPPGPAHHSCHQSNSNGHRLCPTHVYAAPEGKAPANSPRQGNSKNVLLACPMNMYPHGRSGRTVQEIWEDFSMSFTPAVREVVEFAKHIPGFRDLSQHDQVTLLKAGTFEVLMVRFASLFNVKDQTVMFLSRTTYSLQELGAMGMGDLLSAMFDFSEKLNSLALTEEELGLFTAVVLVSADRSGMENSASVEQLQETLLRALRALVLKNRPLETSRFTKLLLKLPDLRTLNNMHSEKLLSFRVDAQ

B1: human Rev-erbα LBD (281–614 Δ324–422) (domain or fragment, UniProt P20393 281-614, looked up)
chain: PEPTVEDVISQVARAHREIFTYAHDKLGSSPGNFNANHASGSPYPHGRSGRTVQEIWEDFSMSFTPAVREVVEFAKHIPGFRDLSQHDQVTLLKAGTFEVLMVRFASLFNVKDQTVMFLSRTTYSLQELGAMGMGDLLSAMFDFSEKLNSLALTEEELGLFTAVVLVSADRSGMENSASVEQLQETLLRALRALVLKNRPLETSRFTKLLLKLPDLRTLNNMHSEKLLSFRVDAQ
B2: NCoR CoRNR1 peptide (2045–2065) (peptide)
peptide: THRLITLADHICQIITQDFAR

The first series addresses T1, GST-Rev-erbα LBD (human). Description: FRET or BRET.
Details: not given
In general terms: Bioluminescence resonance energy transfer reports proximity on the nanometre scale.
The term IC50 denotes the concentration that inhibits the measured activity by half. High values mean weaker potency, low ones greater potency. Take “NCoR (2040–2065) +9F2063A peptide (from UniProt O75376 2040-2065)”: the IC50 was 1900 nM.
Same read-out and setting: then “NCoR (2040–2065) −9His2046A peptide (from UniProt O75376 2040-2065)”, with 540 nM.
With “NCoR (2040–2065) +4Ile2058 alanine mutant peptide (from UniProt O75376 2040-2065)”, the IC50 amounted to 8100 nM.
Take “NCoR (2040–2065) −1H2054A peptide (from UniProt O75376 2040-2065)”: the IC50 stood at 250 nM. Against the preceding molecule, the IC50 is about 32-fold lower.
For “NCoR (2040–2065) −7Leu2048A peptide (from UniProt O75376 2040-2065)”, the IC50 was found to be 570 nM.
As for “NCoR (2040–2065) +5Ile2059 alanine mutant peptide (from UniProt O75376 2040-2065)”, the IC50 turned out to be 19400 nM.
The same measure, in the same setting: in the case of “NCoR (2040–2065) +1Ile2055 alanine mutant peptide (from UniProt O75376 2040-2065)” it was 50300 nM; in that of “NCoR (2040–2065) −4Leu2051A peptide (from UniProt O75376 2040-2065)”, 600 nM; in that of “control wild type NCoR ID1 (2040–2065) peptide (from UniProt O75376 2040-2065)”, 220 nM.

The next series concerns the molecule itself. Description: crystal structure.
Details: not given
As to B1, the binding result was “binds”.

For another series, the target named is B1. The series is described as follows: crystal structure.
Details: not given
For the molecule B2, the binding result is listed as “binds”.

A further series has as its system Rev-erbα LBD.
Experiment: not given
Particulars: NCoR ID1 peptide; cited from earlier work.
Consider `C=CC1=C(C)c2cc3[n-]c(cc4[n-]c(cc5nc(cc1n2)C(C)=C5C=C)c(C)c4CCC(=O)O)c(CCC(=O)O)c3C.[Fe+2]` [heme], for which the “Effect of heme binding on interaction of Rev-erbα LBD with ID1 peptide” value is recorded as “destabilizes the interaction of Rev-erbα with the ID1 peptide”.
